According to article PMC3765742 (2013):

Biological target: M6P/IGF-IIR (Homo sapiens, UniProt P11717)
Assay: SPR

M6P/IGF-IIR, sequence (P11717 41-2491): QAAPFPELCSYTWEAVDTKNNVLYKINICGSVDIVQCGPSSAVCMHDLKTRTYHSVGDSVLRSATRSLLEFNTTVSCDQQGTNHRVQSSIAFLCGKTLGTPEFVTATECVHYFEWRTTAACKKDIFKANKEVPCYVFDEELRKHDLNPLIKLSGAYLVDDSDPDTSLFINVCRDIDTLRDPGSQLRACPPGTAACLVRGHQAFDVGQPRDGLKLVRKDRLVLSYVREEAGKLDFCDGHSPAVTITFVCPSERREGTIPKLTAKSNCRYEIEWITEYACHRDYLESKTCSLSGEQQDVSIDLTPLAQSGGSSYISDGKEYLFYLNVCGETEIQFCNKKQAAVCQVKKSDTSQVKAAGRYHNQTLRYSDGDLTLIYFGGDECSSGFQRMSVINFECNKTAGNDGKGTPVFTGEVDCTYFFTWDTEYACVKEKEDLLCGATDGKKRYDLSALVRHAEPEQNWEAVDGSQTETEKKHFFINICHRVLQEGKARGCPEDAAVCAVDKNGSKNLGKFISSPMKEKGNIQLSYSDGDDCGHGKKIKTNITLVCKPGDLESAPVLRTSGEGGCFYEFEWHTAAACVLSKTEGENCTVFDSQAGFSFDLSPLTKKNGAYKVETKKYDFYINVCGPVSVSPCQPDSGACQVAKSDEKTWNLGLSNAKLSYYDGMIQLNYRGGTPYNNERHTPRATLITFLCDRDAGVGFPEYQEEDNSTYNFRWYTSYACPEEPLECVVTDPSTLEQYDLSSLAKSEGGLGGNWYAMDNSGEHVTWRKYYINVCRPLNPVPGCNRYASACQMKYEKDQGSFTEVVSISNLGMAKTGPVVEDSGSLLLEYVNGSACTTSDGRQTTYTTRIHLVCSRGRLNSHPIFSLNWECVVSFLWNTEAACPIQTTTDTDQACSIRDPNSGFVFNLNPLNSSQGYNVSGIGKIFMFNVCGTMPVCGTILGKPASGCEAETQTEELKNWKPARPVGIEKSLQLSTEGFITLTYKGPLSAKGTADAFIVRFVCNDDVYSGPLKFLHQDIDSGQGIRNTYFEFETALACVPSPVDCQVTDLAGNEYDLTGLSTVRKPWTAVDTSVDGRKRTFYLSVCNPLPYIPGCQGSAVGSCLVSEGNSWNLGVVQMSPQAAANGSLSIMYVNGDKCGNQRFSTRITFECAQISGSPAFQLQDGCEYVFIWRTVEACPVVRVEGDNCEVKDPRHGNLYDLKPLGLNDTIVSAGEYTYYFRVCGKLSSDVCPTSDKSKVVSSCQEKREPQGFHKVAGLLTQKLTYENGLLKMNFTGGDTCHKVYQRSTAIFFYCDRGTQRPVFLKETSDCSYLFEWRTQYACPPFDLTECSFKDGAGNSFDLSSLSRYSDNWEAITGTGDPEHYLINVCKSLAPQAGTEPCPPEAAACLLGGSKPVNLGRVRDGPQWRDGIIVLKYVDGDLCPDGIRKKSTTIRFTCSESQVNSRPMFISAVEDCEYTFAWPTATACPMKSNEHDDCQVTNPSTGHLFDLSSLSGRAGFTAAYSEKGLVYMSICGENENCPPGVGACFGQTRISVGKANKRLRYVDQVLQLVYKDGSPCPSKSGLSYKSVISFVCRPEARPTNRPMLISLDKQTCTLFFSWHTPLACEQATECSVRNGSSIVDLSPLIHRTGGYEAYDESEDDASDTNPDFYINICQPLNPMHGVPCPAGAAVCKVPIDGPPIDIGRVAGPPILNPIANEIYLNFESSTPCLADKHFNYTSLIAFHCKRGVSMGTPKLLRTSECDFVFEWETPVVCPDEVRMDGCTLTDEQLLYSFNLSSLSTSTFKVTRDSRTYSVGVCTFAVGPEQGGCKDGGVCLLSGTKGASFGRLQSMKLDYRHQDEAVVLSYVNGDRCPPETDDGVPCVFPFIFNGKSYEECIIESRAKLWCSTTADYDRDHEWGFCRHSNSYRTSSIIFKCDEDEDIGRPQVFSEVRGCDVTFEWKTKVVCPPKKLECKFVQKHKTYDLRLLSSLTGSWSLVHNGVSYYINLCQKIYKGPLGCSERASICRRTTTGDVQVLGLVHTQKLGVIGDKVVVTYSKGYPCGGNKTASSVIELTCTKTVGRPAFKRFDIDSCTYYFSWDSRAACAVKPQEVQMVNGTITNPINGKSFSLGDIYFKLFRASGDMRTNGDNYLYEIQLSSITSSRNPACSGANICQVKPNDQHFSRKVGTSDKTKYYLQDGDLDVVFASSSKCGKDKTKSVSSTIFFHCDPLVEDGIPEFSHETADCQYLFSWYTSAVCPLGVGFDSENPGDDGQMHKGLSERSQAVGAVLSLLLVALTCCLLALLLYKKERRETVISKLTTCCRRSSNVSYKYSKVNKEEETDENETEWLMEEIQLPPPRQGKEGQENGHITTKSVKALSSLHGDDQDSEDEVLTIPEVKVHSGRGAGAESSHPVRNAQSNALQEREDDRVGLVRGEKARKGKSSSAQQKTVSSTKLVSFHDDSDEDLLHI

B1: DPP-4 (protein)
chain: SRKTYTLTDYLKNTYRLKLYSLRWISDHEYLYKQENNILVFNAEYGNSSVFLENSTFDEFGHSINDYSISPDGQFILLEYNYVKQWRHSYTASYDIYDLNKRQLITEERIPNNTQWVTWSPVGHKLAYVWNNDIYVKIEPNLPSYRITWTGKEDIIYNGITDWVYEEEVFSAYSALWWSPNGTFLAYAQFNDTEVPLIEYSFYSDESLQYPKTVRVPYPKAGAVNPTVKFFVVNTDSLSSVTNATSIQITAPASMLIGDHYLCDVTWATQERISLQWLRRIQNYSVMDICDYDESSGRWNCLVARQHIEMSTTGWVGRFRPSEPHFTLDGNSFYKIISNEEGYRHICYFQIDKKDCTFITKGTWEVIGIEALTSDYLYYISNEYKGMPGGRNLYKIQLSDYTKVTCLSCELNPERCQYYSVSFSKEAKYYQLRCSGPGLPLYTLHSSVNDKGLRVLEDNSALDKMLQNVQMPSKKLDFIILNETKFWYQMILPPHFDKSKKYPLLLDVYAGPCSQKADTVFRLNWATYLASTENIIVASFDGRGSGYQGDKIMHAINRRLGTFEVEDQIEAARQFSKMGFVDNKRIAIWGWSYGGYVTSMVLGSGSGVFKCGIAVAPVSRWEYYDSVYTERYMGLPTPEDNLDHYRNSTVMSRAENFKQVEYLLIHGTADDNVHFQQSAQISKALVDVGVDFQAMWYTDEDHGIASSTAHQHIYTHMSHFIKQCFSLP
B1 gave a Kd of 35.9 µM.
